According to patent US20230212319A1, “NOVEL ANTIGEN BINDING DOMAINS AND SYNTHETIC ANTIGEN RECEPTORS INCORPORATING THE SAME” (University of Southern California, priority 2020, published 2023):

B1: 22223 (protein)
chain: MALPVTALLLPLALLLHAARPDIQMTQSPSSLSASVGDRVTITCKASDHINNWLAWYQQKPGQAPKLLIYGATTLETGVPSRFSGSGSGTDYTLTISSLQPEDFATYYCQQSWNTPWTFGQGTKLEIKRLEDLKNVFPPEVAVFEPSEAEISHTQKATLVCLATGFYPDHVELSWWVNGKEVHSGVCTDPQPLKEQPALNDSRYCLSSRLRVSATFWQNPRNHFRCQVQFYGLSENDEWTQDRAKPVTQIVSAEAWGRADCGFTSESYQQGVLSATILYEILLGKATLYAVLVSALVLMAMVKRKDSRGRAKRSGSGATNFSLLKQAGDVEENPGPTSATMDWIWRILFLVGAATGAHSGPQLGPYELWELSHGSGPLGIAGIFEQVQLQQPGAELVKPGASVKMSCKASGYAFSSYWINWMKQKPGQGLEWIGQIYPGDGDTNYNGKFKGRATLTADTSSSTAYMQLSSLTSEDSAVYFCARSITTVVGCAMDYWGQGTSVTVSSTRIQNPDPAVYQLRDSKSSDKSVCLFTDFDSQTNVSQSKDSDVYITDKCVLDMRSMDFKSNSAVAWSNKSDFACANAFNNSIIPEDTFFPSPESSCDVKLVEKSFETDTNLNFQNLSVIGFRILLLKVAGFNLLMTLRLWSSRAKRSGSGVKQTLNFDLLKLAGDVESNPGPSRGHMTEYKPTVRLATRDDVPRAVRTLAAAFADYPATRHTVDPDRHIERVTELQELFLTRVGLDIGKVWVADDGAAVAVWTTPESVEAGAVFAEIGPRMAELSGSRLAAQQQMEGLLAPHRPKEPAWFLATVGVSPDHQGKGLGSAVVLPGVEAAERAGVPAFLETSAPRNLPFYERLGFTVTADVEVPEGPRTWCMTRKPGA
B2: 22222 (protein)
chain: MALPVTALLLPLALLLHAARPACPQLGPYELWELSHGTGAVVRGAEFDIQMTQSPSSLSASVGDRVTITCKASDHINNWLAWYQQKPGQAPKLLIYGATTLETGVPSRFSGSGSGTDYTLTISSLQPEDFATYYCQQSWNTPWTFGQGTKLEIKRLEDLKNVFPPEVAVFEPSKAEIAHTQKATLVCLATGFYPDHVELSWWVNGKEVHSGVCTDPQPLKEQPALNDSRYCLSSRLRVSATFWQNPRNHFRCQVQFYGLSENDEWTQDRAKPVTQIVSAEAWGRADCGITSASYHQGVLSATILYEILLGKATLYAVLVSALVLMAMVKRKDSRGRAKRSGSGATNFSLLKQAGDVEENPGPTSATMDWIWRILFLVGAATGAHSGPQVQLQESGGGLAQAGGSLRLSCAASGRTFSMGWFRQAPGKEREFVAAITYSGGSPYYASSVRGRFTISRDNAKNTVYLQMNSLKPEDTAVYYCAANPTYGSDWNAENWGQGTQVTVSSGSGGGGSGGGGSGGGGSFEQVQLQQPGAELVKPGASVKMSCKASGYAFSSYWINWMKQKPGQGLEWIGQIYPGDGDTNYNGKFKGRATLTADTSSSTAYMQLSSLTSEDSAVYFCARSITTVVGCAMDYWGQGTSVTVSSTRIQNPDPAVYQLRDSKSSDKSVCLFTDFDSQTNVSQSKDSDVYITDKCVLDMRSMDFKSNSAVAWSNKSDFACANAFNNSIIPEDTFFPSSDVPCDVKLVEKSFETDTNLNFQNLSVIGFRILLLKVAGFNLLMTLRLWSSRAKRSGSGVKQTLNFDLLKLAGDVESNPGPSRGHMTEYKPTVRLATRDDVPRAVRTLAAAFADYPATRHTVDPDRHIERVTELQELFLTRVGLDIGKVWVADDGAAVAVWTTPESVEAGAVFAEIGPRMAELSGSRLAAQQQMEGLLAPHRPKEPAWFLATVGVSPDHQGKGLGSAVVLPGVEAAERAGVPAFLETSAPRNLPFYERLGFTVTADVEVPEGPRTWCMTRKPGA
B3: 22227 (protein)
chain: MALPVTALLLPLALLLHAARPDIQMTQSPSSLSASVGDRVTITCKASDHINNWLAWYQQKPGQAPKLLIYGATTLETGVPSRFSGSGSGTDYTLTISSLQPEDFATYYCQQSWNTPWTFGQGTKLEIKRLEDLKNVFPPEVAVFEPSEAEISHTQKATLVCLATGFYPDHVELSWWVNGKEVHSGVCTDPQPLKEQPALNDSRYCLSSRLRVSATFWQNPRNHFRCQVQFYGLSENDEWTQDRAKPVTQIVSAEAWGRADCGFTSESYQQGVLSATILYEILLGKATLYAVLVSALVLMAMVKRKDSRGRAKRSGSGATNFSLLKQAGDVEENPGPTSATMDWIWRILFLVGAATGAHSGPQLGPYELWELSHGSALRRLLGLFGFEQVQLQQPGAELVKPGASVKMSCKASGYAFSSYWINWMKQKPGQGLEWIGQIYPGDGDTNYNGKFKGRATLTADTSSSTAYMQLSSLTSEDSAVYFCARSITTVVGCAMDYWGQGTSVTVSSTRIQNPDPAVYQLRDSKSSDKSVCLFTDFDSQTNVSQSKDSDVYITDKCVLDMRSMDFKSNSAVAWSNKSDFACANAFNNSIIPEDTFFPSPESSCDVKLVEKSFETDTNLNFQNLSVIGFRILLLKVAGFNLLMTLRLWSSRAKRSGSGVKQTLNFDLLKLAGDVESNPGPSRGHMTEYKPTVRLATRDDVPRAVRTLAAAFADYPATRHTVDPDRHIERVTELQELFLTRVGLDIGKVWVADDGAAVAVWTTPESVEAGAVFAEIGPRMAELSGSRLAAQQQMEGLLAPHRPKEPAWFLATVGVSPDHQGKGLGSAVVLPGVEAAERAGVPAFLETSAPRNLPFYERLGFTVTADVEVPEGPRTWCMTRKPGA
B4: 22228 (protein)
chain: MALPVTALLLPLALLLHAARPDIQMTQSPSSLSASVGDRVTITCKASDHINNWLAWYQQKPGQAPKLLIYGATTLETGVPSRFSGSGSGTDYTLTISSLQPEDFATYYCQQSWNTPWTFGQGTKLEIKRLEDLKNVFPPEVAVFEPSEAEISHTQKATLVCLATGFYPDHVELSWWVNGKEVHSGVCTDPQPLKEQPALNDSRYCLSSRLRVSATFWQNPRNHFRCQVQFYGLSENDEWTQDRAKPVTQIVSAEAWGRADCGFTSESYQQGVLSATILYEILLGKATLYAVLVSALVLMAMVKRKDSRGRAKRSGSGATNFSLLKQAGDVEENPGPTSATMDWIWRILFLVGAATGAHSGPQDKLTQWPKWLEGSGGGGSGGGGSGGGGSFEQVQLQQPGAELVKPGASVKMSCKASGYAFSSYWINWMKQKPGQGLEWIGQIYPGDGDTNYNGKFKGRATLTADTSSSTAYMQLSSLTSEDSAVYFCARSITTVVGCAMDYWGQGTSVTVSSTRIQNPDPAVYQLRDSKSSDKSVCLFTDFDSQTNVSQSKDSDVYITDKCVLDMRSMDFKSNSAVAWSNKSDFACANAFNNSIIPEDTFFPSPESSCDVKLVEKSFETDTNLNFQNLSVIGFRILLLKVAGFNLLMTLRLWSSRAKRSGSGVKQTLNFDLLKLAGDVESNPGPSRGHMTEYKPTVRLATRDDVPRAVRTLAAAFADYPATRHTVDPDRHIERVTELQELFLTRVGLDIGKVWVADDGAAVAVWTTPESVEAGAVFAEIGPRMAELSGSRLAAQQQMEGLLAPHRPKEPAWFLATVGVSPDHQGKGLGSAVVLPGVEAAERAGVPAFLETSAPRNLPFYERLGFTVTADVEVPEGPRTWCMTRKPGA
B5: 22219 (protein)
chain: MALPVTALLLPLALLLHAARPDIQMTQSPSSLSASVGDRVTITCKASDHINNWLAWYQQKPGQAPKLLIYGATTLETGVPSRFSGSGSGTDYTLTISSLQPEDFATYYCQQSWNTPWTFGQGTKLEIKRLEDLKNVFPPEVAVFEPSEAEISHTQKATLVCLATGFYPDHVELSWWVNGKEVHSGVCTDPQPLKEQPALNDSRYCLSSRLRVSATFWQNPRNHFRCQVQFYGLSENDEWTQDRAKPVTQIVSAEAWGRADCGFTSESYQQGVLSATILYEILLGKATLYAVLVSALVLMAMVKRKDSRGRAKRSGSGATNFSLLKQAGDVEENPGPTSATMDWIWRILFLVGAATGAHSGPSACPYSNPSLCSGSGGGGSGGGGSGGGGSFEQVQLQQPGAELVKPGASVKMSCKASGYAFSSYWINWMKQKPGQGLEWIGQIYPGDGDTNYNGKFKGRATLTADTSSSTAYMQLSSLTSEDSAVYFCARSITTVVGCAMDYWGQGTSVTVSSTRIQNPDPAVYQLRDSKSSDKSVCLFTDFDSQTNVSQSKDSDVYITDKCVLDMRSMDFKSNSAVAWSNKSDFACANAFNNSIIPEDTFFPSPESSCDVKLVEKSFETDTNLNFQNLSVIGFRILLLKVAGFNLLMTLRLWSSRAKRSGSGVKQTLNFDLLKLAGDVESNPGPSRGHMTEYKPTVRLATRDDVPRAVRTLAAAFADYPATRHTVDPDRHIERVTELQELFLTRVGLDIGKVWVADDGAAVAVWTTPESVEAGAVFAEIGPRMAELSGSRLAAQQQMEGLLAPHRPKEPAWFLATVGVSPDHQGKGLGSAVVLPGVEAAERAGVPAFLETSAPRNLPFYERLGFTVTADVEVPEGPRTWCMTRKPGA
B6: 22230 (protein)
chain: MALPVTALLLPLALLLHAARPDIQMTQSPSSLSASVGDRVTITCKASDHINNWLAWYQQKPGQAPKLLIYGATTLETGVPSRFSGSGSGTDYTLTISSLQPEDFATYYCQQSWNTPWTFGQGTKLEIKRLEDLKNVFPPEVAVFEPSEAEISHTQKATLVCLATGFYPDHVELSWWVNGKEVHSGVCTDPQPLKEQPALNDSRYCLSSRLRVSATFWQNPRNHFRCQVQFYGLSENDEWTQDRAKPVTQIVSAEAWGRADCGFTSESYQQGVLSATILYEILLGKATLYAVLVSALVLMAMVKRKDSRGRAKRSGSGATNFSLLKQAGDVEENPGPTSATMDWIWRILFLVGAATGAHSGPQDKLTQWPKWLEGGGGSELPTQGTFSNVSTNVSGGGGQDKLTQWPKWLEGGGGSELPTQGTFSNVSTNVSGSGGGGSGGGGSGGGGSFEQVQLQQPGAELVKPGASVKMSCKASGYAFSSYWINWMKQKPGQGLEWIGQIYPGDGDTNYNGKFKGRATLTADTSSSTAYMQLSSLTSEDSAVYFCARSITTVVGCAMDYWGQGTSVTVSSTRIQNPDPAVYQLRDSKSSDKSVCLFTDFDSQTNVSQSKDSDVYITDKCVLDMRSMDFKSNSAVAWSNKSDFACANAFNNSIIPEDTFFPSPESSCDVKLVEKSFETDTNLNFQNLSVIGFRILLLKVAGFNLLMTLRLWSSRAKRSGSGVKQTLNFDLLKLAGDVESNPGPSRGHMTEYKPTVRLATRDDVPRAVRTLAAAFADYPATRHTVDPDRHIERVTELQELFLTRVGLDIGKVWVADDGAAVAVWTTPESVEAGAVFAEIGPRMAELSGSRLAAQQQMEGLLAPHRPKEPAWFLATVGVSPDHQGKGLGSAVVLPGVEAAERAGVPAFLETSAPRNLPFYERLGFTVTADVEVPEGPRTWCMTRKPGA

Each molecule was assayed on RAJI cells (assay: JNG assay, co-culture with RAJI cells). Conditions: JNG cells expressing construct, co-culture with Raji.
Type: cell-based
Summary of the method: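 Jurkat NFAT-GFP (JNG) cells stably transduced with SARs by lentivirus, with drug selection where the construct carried a resistance gene, then co-cultured with target cells at E:T ~1:2 for ~4–18 h. % GFP-positive cells measured by FACS against parental JNG; +/- to 5+ correspond to ~5–50% GFP-positive.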

Molecule | NFAT-GFP ASSAY: Raji
B1 | Raji (3+) (refer to approximately 5%, 10%, 20%, 30%, 40% and 50% GFP positive cells)
B2 | Raji (2+) (refer to approximately 5%, 10%, 20%, 30%, 40% and 50% GFP positive cells)
B3 | Raji (4+) (refer to approximately 5%, 10%, 20%, 30%, 40% and 50% GFP positive cells)
B4 | Raji (2+) (refer to approximately 5%, 10%, 20%, 30%, 40% and 50% GFP positive cells)
B5 | Raji (+/-) (refer to approximately 5%, 10%, 20%, 30%, 40% and 50% GFP positive cells)
B6 | 4+ (refer to approximately 5%, 10%, 20%, 30%, 40% and 50% GFP positive cells)
